Assay results taken from the MegaScale stability set (Tsuboyama et al. 2023).

B1: 1ZHC (parent)
chain: HEFRDEISVLKANNPHFDKIFEKHNQLDDDIKTAEQQNASDAEVSHMKKQKLKLKDEIHSMIIEYREK

Variants of: B1
Assay: folding stability dG (cDNA display proteolysis); higher = more stable
Details: PBS, room temperature

Folding stability dG [kcal/mol] of substitutions, site by site:
F21: H -0.017; C 0.68; I 0.372; M 0.443; Y 0.959; V 0.263; S 0.151; W 1.79; T -0.186; L 0.554
N25: Q 1.29; A 1.03; V 0.471; F 0.65; K 1.42; G -0.067; R 1.59; L 1.14; Y 0.277; T 0.573; I 0.737; H 0.533; D 0.646; M 0.989; S 0.766; E 0.44; C 1.41; W 0.642
N38: P -0.007; M 0.449; S 0.358; W -0.188; R 0.634; H 0.624; G 1.55; E -0.059; Q -0.49; F 0.925; K 0.548; Y 0.303; T 0.312; I -0.331; D 0.358; A 0.467; V -0.172; L 0.276; C 0.923
A34: L 1.21; V -0.863; K 0.579; W 0.215; R 0.663; C 0.429; I -0.296; H -0.482; M 0.859; Y 0.389; F 0.526; Q -0.306
E22: G 0.979; H 0.392; R 1.57; K 1.57; I 0.633; W 0.419; S 1.19; V 0.395; C 0.723; T 1.26; N 1.34; D 0.198; F 0.764; M 1.27; Q 1.44; A 1.32; Y 0.584; L 1.04
D18: G 1.16; N 1.74; Y 1.95; A 2.29; M 2.03; H 1.62; K 2.23; F 2.03; R 2.46; T 1.35; C 1.97; W 1.77; Q 1.95; I 1.43; S 1.56; L 2.42; V 1.68; E 1.35
K32: V 0.251; Y 0.157; S 0.171; D -0.682; E 0.008; T 0.187; N 0.323; M 0.333; F 0.278; H 0.348; A 0.452; I 0.135; Q 0.87; L 0.566; C 0.133; W 0.34; R 1.18
D29: Y 1.25; A 1.44; C 1.17; S 1.2; F 1.38; Q 1.5; I 1.44; L 1.56; V 1.24; K 1.79; E 1.24; W 1.26; H 1.51; N 1.49; T 0.539; G 0.771; R 1.67; M 1.5
L27: V 0.331; C 0.277; Y -0.311; M 0.198; F 0.005; W -0.576; I 0.13
K23: F -0.019; Y 1.02; A 0.787; R 0.933; S 0.339; C 0.886; H 0.386; Q 1.33; N 0.111; I 0.915; T 0.355; E 1.16; D 0.146; V 0.152; L 1.55; W 1.28; M 1.58
H16: Y 1.53
Q26: R 1.28; E -0.511; V -0.13; H -0.231; F -0.21; S 0.329; M -0.061; T 0.215; Y -0.902; C -0.127; A 0.273; L 0.746; W -0.614; N 0.184; I -0.025; D 0.206; K 1.07
D30: L 1.27; W 1.09; Y 0.857; A 1.4; C 1.21; E 0.784; Q 1.25; T 0.396; K 1; I 0.712; S 0.524; V -0.277; F 0.817; M 1.66; N 0.359; G -0.099; R 1.07
A39: C 0.897; I 0.873; F 1.07; E 0.246; H 0.973; G 0.787; D 0.034; K 1.1
K19: G 0.004; W 1.3; A 1.13; L 0.515; E 1.1; D 0.823; H 0.901; V 0.316; I 0.622; C 1.32; M 0.78; S 0.513; Y 1.52; F 1.37; N 0.558; Q 0.953; R 1.15; T 0.755
Q37: H 1.05; D 0.411; A 1.07; S 1; T 0.882; K 0.764; M 0.926; R 1.51; I 0.631; W 0.426; L 0.867; Y 0.718; G 0.943; C 0.94; V 0.447; F 0.569; E 0.422; N 1.38
F17: G -0.943; R -0.98; P -0.525; C -0.409; E -0.562
Q36: W 0.281; F 0.822; T 0.782; L 1.02; Y 0.632; N 0.652; H -0.003; C 0.694; M 1.31; A 1.01; G 0.883; R 1.25; K 0.963; E 0.904; D 0.576; V 0.511; I 0.263; S 1.17
E35: A 0.281; W 0.403; S 0.162; M 1.49; F 0.495; C 0.531; H -0.572; Q 1.17; T 0.201; V 0.864; Y 0.895; I 1.68; L 1.67; G -0.433; R 0.348; K 0.972; N 0.058
I31: N -0.499; V -0.196; D -0.93; H -0.743; L -0.093; C -0.874
T33: H 0.96; C 0.988; F 1; N 1.07; M 1.26; G -0.016; Y 0.829; A 1.14; D 0.706; Q 1.02; I 0.854; L 1.14; R 1.55; E 0.363; W 0.943; S 0.866; V 1.3; K 1.43
D28: L 0.945; H 0.757; E 1.18; W 0.731; K 0.414; F 0.297; I 1.13; A 1.37; G 0.786; T 1.48; M 1.21; Y 0.56; V 1.29; Q 0.794; R 0.988; S 0.804
H24: K -0.319; Y 2.15; R -0.124; W 1.64; V 0.939; C 1.86; F 2.06; A 0.782; S 0.609; Q 0.285; M 1.74; I 1.22; L 1.68; T -0.497
I20: A -0.159; L 0.743; C -0.061; V 0.461; M -0.166; T -0.398; Y -0.117
